# Data taken from the Immune Epitope Database (IEDB).
# Columns and labels:
# HLA-B*15:09 = assay: IEDB peptide-MHC binding, purified MHC/direct/fluorescence; filed as Kd, often an IC50 or EC50 that approximates it; ≥ and ≤ were set here for values at or beyond the usual limits of such assays
# HLA-B*39:01 [1] = assay: IEDB peptide-MHC binding, purified MHC/competitive/fluorescence; filed as Kd, often an IC50 or EC50 that approximates it; ≥ and ≤ were set here for values at or beyond the usual limits of such assays; settings: source organism: Bacillus thuringiensis str. Al Hakam
# HLA-A*01:01 = assay: IEDB peptide-MHC binding, purified MHC/direct/fluorescence; filed as Kd, often an IC50 or EC50 that approximates it; ≥ and ≤ were set here for values at or beyond the usual limits of such assays
# HLA-A*02:01 = assay: as above
# HLA-A*03:01 [2] = assay: as above
# HLA-A*11:01 = assay: as above
# HLA-A*69:01 = assay: as above
# HLA-B*07:02 [3] = assay: as above
# HLA-B*15:01 [4] = assay: as above
# HLA-B*15:17 = assay: as above; settings: source organism: Influenza A virus (A/duck/Hokkaido/1130/01(H1N1))
# HLA-B*18:01 = assay: as above
# HLA-B*27:05 = assay: as above
# HLA-B*40:01 = assay: as above
# HLA-B*46:01 = assay: as above
# HLA-B*48:01 = assay: as above; settings: source organism: Influenza A virus (A/duck/Hokkaido/1130/01(H1N1))
# HLA-B*51:01 = assay: as above; settings: source organism: Influenza A virus (A/duck/Hokkaido/1130/01(H1N1))
# HLA-B*57:01 = assay: as above; settings: source organism: Influenza A virus (A/duck/Hokkaido/1130/01(H1N1))
# HLA-B*58:01 = assay: as above
# HLA-A*02:03 = assay: IEDB peptide-MHC binding, purified MHC/competitive/fluorescence; filed as Kd, often an IC50 or EC50 that approximates it; ≥ and ≤ were set here for values at or beyond the usual limits of such assays; settings: source organism: Influenza A virus (A/81/HO)
# HLA-A*31:01 [5] = assay: as above
# HLA-B*39:01 [6] = assay: IEDB peptide-MHC binding, purified MHC/direct/fluorescence; filed as Kd, often an IC50 or EC50 that approximates it; ≥ and ≤ were set here for values at or beyond the usual limits of such assays; settings: source organism: Vibrio parahaemolyticus AQ3810
# HLA-A*02:11 = assay: as above; settings: source organism: Rickettsia prowazekii
# HLA-A*02:19 = assay: as above; settings: source organism: Rickettsia prowazekii
# HLA-A*03:01 [7] = assay: IEDB peptide-MHC binding, purified MHC/competitive/fluorescence; filed as Kd, often an IC50 or EC50 that approximates it; ≥ and ≤ were set here for values at or beyond the usual limits of such assays; settings: source organism: Escherichia coli O139:H28 str. E24377A
# HLA-A*24:02 [8] = assay: IEDB peptide-MHC binding, purified MHC/direct/fluorescence; filed as Kd, often an IC50 or EC50 that approximates it; ≥ and ≤ were set here for values at or beyond the usual limits of such assays
# HLA-A*31:01 [9] = assay: as above; settings: source organism: Influenza A virus (A/swine/Korea/S190/2004(H9N2))
# HLA-B*08:01 = assay: as above
# HLA-B*44:02 = assay: as above
# HLA-A*24:02 [10] = assay: IEDB peptide-MHC binding, purified MHC/competitive/fluorescence; ≥ and ≤ were set here for values at or beyond the usual limits of such assays; settings: source organism: Zaire ebolavirus
# HLA-B*07:02 [11] = assay: as above; settings: source organism: Zaire ebolavirus
# HLA-B*15:01 [12] = assay: as above; settings: source organism: Zaire ebolavirus
# [13] = source organism: Influenza A virus (A/duck/Hokkaido/1130/01(H1N1))
# [14] = source organism: Rickettsia prowazekii
# [15] = source organism: Bacillus anthracis
# [16] = source organism: Influenza A virus (A/swine/Korea/S190/2004(H9N2))
# [17] = source organism: Influenza A virus (A/Puerto Rico/8/34/Mount Sinai(H1N1))
# [18] = source organism: Influenza A virus (A/England/627/01(H1N2))
sequence,measurement,setting,value
EHFLGIWGL,Kd,HLA-B*15:09; source organism: Bacillus cereus H3081.97,0.094 µM
same,Kd,HLA-B*39:01 [1],0.0179 µM
ELRSRYWAI,Kd,HLA-A*01:01; [13],≥ 20 µM
same,Kd,HLA-A*02:01; [13],≥ 20 µM
same,Kd,HLA-A*03:01 [2]; [13],≥ 20 µM
same,Kd,HLA-A*11:01; [13],≥ 20 µM
same,Kd,HLA-A*69:01; [13],0.151 µM
same,Kd,HLA-B*07:02 [3]; [13],≥ 20 µM
same,Kd,HLA-B*15:01 [4]; [13],≥ 20 µM
same,Kd,HLA-B*15:17,≥ 20 µM
same,Kd,HLA-B*18:01; [13],2.45 µM
same,Kd,HLA-B*27:05; [13],≥ 20 µM
same,Kd,HLA-B*40:01; [13],≥ 20 µM
same,Kd,HLA-B*46:01; [13],≥ 20 µM
same,Kd,HLA-B*48:01,≥ 20 µM
same,Kd,HLA-B*51:01,≥ 20 µM
same,Kd,HLA-B*57:01,≥ 20 µM
same,Kd,HLA-B*58:01; [13],≥ 20 µM
same,Kd,HLA-A*02:03,≥ 20 µM
same,Kd,HLA-A*31:01 [5]; source organism: Influenza A virus (A/81/HO),≥ 20 µM
EQYGPRHTL,Kd,HLA-B*15:09; source organism: Vibrio parahaemolyticus AQ3810,0.18 µM
same,Kd,HLA-B*39:01 [6],0.004 µM
FGSGWTWVV,Kd,HLA-A*02:01; [14],0.669 µM
same,Kd,HLA-A*02:11,≤ 0.001 µM
same,Kd,HLA-A*02:19,≤ 0.001 µM
same,Kd,HLA-A*69:01; [14],1.18 µM
GINWKHPKR,Kd,HLA-A*03:01 [7],1.57 µM
same,Kd,HLA-A*31:01 [5]; source organism: Escherichia coli O139:H28 str. E24377A,0.199 µM
GTGAGVPSK,Kd,HLA-A*03:01 [2]; [15],1.14 µM
same,Kd,HLA-A*11:01; [15],0.0113 µM
same,Kd,HLA-A*31:01 [5]; source organism: Bacillus anthracis str. A0488,0.644 µM
IPKRNRSIL,Kd,HLA-A*01:01; [16],≥ 20 µM
same,Kd,HLA-A*02:01; [16],≥ 20 µM
same,Kd,HLA-A*03:01 [2]; [16],≥ 20 µM
same,Kd,HLA-A*11:01; [16],≥ 20 µM
same,Kd,HLA-A*24:02 [8]; [16],≥ 20 µM
same,Kd,HLA-A*31:01 [9],≥ 20 µM
same,Kd,HLA-A*69:01; [16],≥ 20 µM
same,Kd,HLA-B*07:02 [3]; [17],0.015 µM
same,Kd,HLA-B*08:01; [17],0.268 µM
same,Kd,HLA-B*15:01 [4]; [16],≥ 20 µM
same,Kd,HLA-B*18:01; [16],≥ 20 µM
same,Kd,HLA-B*27:05; [16],≥ 20 µM
same,Kd,HLA-B*40:01; [16],≥ 20 µM
same,Kd,HLA-B*44:02; [16],≥ 20 µM
same,Kd,HLA-B*46:01; [16],≥ 20 µM
same,Kd,HLA-B*58:01; [16],≥ 20 µM
IWARTYFFK,Kd,HLA-A*24:02 [8]; source organism: Salmonella enterica subsp. enterica serovar Choleraesuis str. SC-B67,0.296 µM
KIRSEELSF,IC50,HLA-A*24:02 [10],≥ 106 µM
same,IC50,HLA-B*07:02 [11],≥ 173 µM
same,IC50,HLA-B*15:01 [12],≥ 91.7 µM
KMARLGKGY,Kd,HLA-A*01:01; [18],≥ 20 µM
same,Kd,HLA-A*02:01; [18],≥ 20 µM
same,Kd,HLA-A*03:01 [2]; [17],0.252 µM
same,Kd,HLA-A*24:02 [8]; [18],≥ 20 µM
same,Kd,HLA-A*69:01; [18],≥ 20 µM
same,Kd,HLA-B*07:02 [3]; [18],≥ 20 µM
same,Kd,HLA-B*08:01; [18],≥ 20 µM
same,Kd,HLA-B*15:01 [4]; [17],0.178 µM
same,Kd,HLA-B*27:05; [17],0.379 µM
same,Kd,HLA-B*40:01; [18],≥ 20 µM
same,Kd,HLA-B*44:02; [18],≥ 20 µM
same,Kd,HLA-B*46:01; [18],≥ 20 µM
same,Kd,HLA-B*58:01; [18],≥ 20 µM
